± gives the standard deviation of the averaged measurements.

The test system of this data set is VchCAST RNA-guided transposition machinery (E. coli BL21(DE3) host, lacZ target). The data set is described as follows: relative integration efficiency (T-LR orientation) vs wild-type transposon end (log2 (normalized fold change)); transposon end mutated: right end (5 bp flank + 75 bp right end); higher = more efficient transposition. A digest of the protocol: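 In E. coli BL21(DE3), a T7-driven effector plasmid was paired with a pUC57 mini-transposon donor containing 1549 left-end or 1849 right-end barcoded transposon variants. Cells grew on plates with 0.1 mM IPTG at 37°C for 18 h. Relative integration efficiency was derived from Illumina reads of genomic integration junctions against input plasmids, as a log-transformed output/input barcode fold change normalised to reference barcodes.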
As to “ACATTTGTTGATACACCCATAAATTGATAATTACAACCATAAGTTGATATTTTTCACAACCATAAGTTGATATTTTCTCTGATCATAGTCAGACCAACATTGCTACGACCCGTATTCGCACCGACAC”, the “relative integration efficiency (log2)” value is -0.275 ± 0.18. The result for “ACATTGGTTGATACAACCATAAAATGATAATTACACCCATAAATTCATAATTATCACACCCAATTTAACTATAACGCTCTGATCATAGTCAGACCAACATTGCTACGACCCGTATTCGCACCGACAC” reads -5.532 ± 0.042. With “ACATTTGTTGATACACCCATAAATTGATATTGCCACCCATAAATTGATATTGCTCACACCCATAAATTGATATTGCCTCTGATCATAGTCAGACCAACATTGCTACGACCCGTATTCGCACCGACAC”, the “relative integration efficiency (log2)” value amounted to 0.0807 ± 0.15. For the sequence “ACATTTGTTCATACAACCATAAAACGATAATTACACCCATAAATTGATCATTATCACACCCAATTTAACTATAACGCTCTGATCATAGTCAGACCAACATTGCTACGACCCGTATTCGCACCGACAC”, the “relative integration efficiency (log2)” value is -0.162 ± 0.59.

As for “ACATTAGTGGATACAACCATAAAATGATAATTACACCCATAAATTCATCATTATCACACCCAATTTAACTATAACGCTCTGATCATAGTCAGACCAACATTGCTACGACCCGTATTCGCACCGACAC”, the “relative integration efficiency (log2)” value is -4.73 ± 0.58.

With “ACATTTGTTGATACAACCAATAAAAGATTAATACCCCCATTAATTGATAATTGTGACACCGAATTTAACTATAACGCTCTGATCATAGTCAGACCAACATTGCTACGACCCGTATTCGCACCGACAC”, the “relative integration efficiency (log2)” value was -2.97 ± 0.16.

Turning to “ACATTTGTTGATACAACCATAAAGTGATATTTACAACCATAAAATGATAATTATCACAACCATAAAATGATAATTACTCTGATCATAGTCAGACCAACATTGCTACGACCCGTATTCGCACCGACAC”, the “relative integration efficiency (log2)” value came out at 0.0497 ± 0.074. Turning to “ACATTTGTTGATACAACCATAAGTTGATATTTTCAACCATAAGTTGATATTTTTCACAACCATAAAATGATAATTACTCTGATCATAGTCAGACCAACATTGCTACGACCCGTATTCGCACCGACAC”, the “relative integration efficiency (log2)” value was -0.0651 ± 0.34. The figure for “ACATTTGTTCATACAACCATAAAACGATAATTACACCCATAAATTGATAATTATCACACCCAATTTAACTATAACGCTCTGATCATAGTCAGACCAACATTGCTACGACCCGTATTCGCACCGACAC” is 1.42 ± 0.13; for “ACATTTGTTGATACACCCATAAATTGATAATTACAACCATAAGTTGATATTTTTCACACCCATAAATTGATAATTACTCTGATCATAGTCAGACCAACATTGCTACGACCCGTATTCGCACCGACAC” it is 0.055 ± 0.036; for “ACATTGGTTCATACAACCATAAAATGATAATTACACCCATAAATTCATAATTATCACACCCAATTTAACTATAACGCTCTGATCATAGTCAGACCAACATTGCTACGACCCGTATTCGCACCGACAC” it is -6.28 ± 2.6.

Regarding “ACATTTGTTGATACAACCATAAAATGATAATTCCACCCCTAAATTGATAATTATCACACCCAATTTAACTATAACGCTCTGATCATAGTCAGACCAACATTGCTACGACCCGTATTCGCACCGACAC”, the “relative integration efficiency (log2)” value is -0.0192 ± 0.33. For “ACATTTGTTGATACAACCATAAAATGATAATTACCAAACGCCCGGTCGCCGGCGACACAAACGCCCGGTCGCGGTAAGAGGATCATAGTCAGACCAACATTGCTACGACCCGTATTCGCACCGACAC”, the “relative integration efficiency (log2)” value was found to be 0.864 ± 0.055. In the case of “ACATTTGTTGATACAACCATAAAGTGATATTTACACCCATAAATTGATATTGCTCACACCCATAAATTGATAATTACTCTGATCATAGTCAGACCAACATTGCTACGACCCGTATTCGCACCGACAC”, the “relative integration efficiency (log2)” value worked out at 0.595 ± 0.26.

As for “ACATTTCTTGATACAACCATAAAATGATAATTACACCCATAAATGGATAATTATCACACCCAATTTAACTATAACGCTCTGATCATAGTCAGACCAACATTGCTACGACCCGTATTCGCACCGACAC”, the “relative integration efficiency (log2)” value was found to be 0.0926 ± 0.35. Take “ACATTTGTTGATACCACCATAAAATGATAATTACACCCCTACATTGATAATTATCACACCCAATTTAACTATAACGCTCTGATCATAGTCAGACCAACATTGCTACGACCCGTATTCGCACCGACAC”: the “relative integration efficiency (log2)” value was -0.284 ± 0.22. For “ACATTTGTTGATACAACCATAAAATGATAATTAATAATTATTTATAATCAGCAACCACCCATAAATTGATAATTATCACACCCATAAATTGATATTGCCTCTGATCATAGTCAGACCAACATTGCTA”, the “relative integration efficiency (log2)” value was -1.81 ± 0.066. The result for “ACATTTGTTGATACAACCATAAAATGATAATTACTCTGATCATAGTCAGACCAACATTGCTACGACCCGTATTCGCACCGACACACCCATAAATTGATAATTATCAGTGGGTATTTAACTATAACGC” reads 2.24 ± 0.21; that for “ACATTTGTTGATACAAGCATAAAATGATAATTACACGCATAAATTGATAATTATCACACGCATAAATTGATATTGCCTCTGATCATAGTCAGACCAACATTGCTACGACCCGTATTCGCACCGACAC”, -0.218 ± 0.08; that for “ACATTTGTTGATACAACCATAAAATGATAATTACACCCATAAATTGATAATTATCACACCCATAAATTGATATTGCCAGTGATCATAGTCAGACCAACATTGCTACGACCCGTATTCGCACCGACAC”, -0.53 ± 0.12.

In the case of “ACATTTGTTGATACAACCATAAAATGATAATTACACCCATAAATTGATAATTATCACACCCATAAATTGATATTGCCTCTGATAACTTCGTATAGTATACCTTATACGAAGTTATTCGCACCGACAC”, the “relative integration efficiency (log2)” value worked out at 1.034 ± 0.0024. Turning to “ACATTTGTTGATAGTACCATAAAATGATAATTACACCCATAAATTGATAATTATCACACCCATAAATTGATATTGCCTCTGATCATAGTCAGACCAACATTGCTACGACCCGTATTCGCACCGACAC”, the “relative integration efficiency (log2)” value was -1.23 ± 0.17. For “ACATTTGTTGATACAACCATAAAATGATAATTACACCCATAAATTGATAATTATCACCAAAATAAATTGATATTGCCTCTGATCATAGTCAGACCAACATTGCTACGACCCGTATTCGCACCGACAC”, the “relative integration efficiency (log2)” value was 2.72 ± 0.1.

Regarding “ACATTAGTTCATACAACCATAAAATGATAATTACACCCATAAATGGATAATTATCACACCCAATTTAACTATAACGCTCTGATCATAGTCAGACCAACATTGCTACGACCCGTATTCGCACCGACAC”, the “relative integration efficiency (log2)” value is -3.62 ± 0.12. On to “ACATTTGTTGATACAACCATAAAATGATAATTAATAATTATTTATAATCAGCAACTTCACCCATAAATTGATAATTATCAACAAACGCCCGGTCGCGGTACTCTGATCATAGTCAGACCAACATTGC”, for which the “relative integration efficiency (log2)” value was 0.707 ± 0.87. “ACATTTGTTGATACAACCATAAAAGGATCATTACACCCATAAATTGATAATTATCCCACCCAATTTAACTATAACGCTCTGATCATAGTCAGACCAACATTGCTACGACCCGTATTCGCACCGACAC”: the “relative integration efficiency (log2)” value is 1.75 ± 0.057. Take “ACATTTGTTGATACAACCATAAAATGATAATTACAACCATATATTGATATCTCTCACAACCATATATTGATATCTCCTCTGATCATAGTCAGACCAACATTGCTACGACCCGTATTCGCACCGACAC”: the “relative integration efficiency (log2)” value turned out to be 0.0166 ± 0.61. In the case of “ACATTTGTTGATACAACCATAAAATGATAATTACACCCAGCCCGGTCGCCGGCGACACAAACGCCCGGTCGCGGTAAGAGGATCATAGTCAGACCAACATTGCTACGACCCGTATTCGCACCGACAC”, the “relative integration efficiency (log2)” value amounted to 1.03 ± 0.08. On to “ACATTTGTTGATACAACCAATAAATGATTATTACACCCATAAATTGATAATAATGACACCGAATTTAACTATAACGCTCTGATCATAGTCAGACCAACATTGCTACGACCCGTATTCGCACCGACAC”, for which the “relative integration efficiency (log2)” value turned out to be 3.45 ± 0.19. The figure for “ACATTTGTTGATACAACCATTAAATGATAATTCCACCCATCAATTGATAATTATCACACCCAATTTAACTATAACGCTCTGATCATAGTCAGACCAACATTGCTACGACCCGTATTCGCACCGACAC” is 1.01 ± 0.31; for “ACATTTGTTGATACAACCATAAGTTGATATTTTCAACCATAAAGTGATATTTATCAGTGGGTATTTAACTATAACGCTCTGATCATAGTCAGACCAACATTGCTACGACCCGTATTCGCACCGACAC” it is 2.69 ± 0.17. Regarding “ACATTGGTCGATACAACCATAAAATGATAATTACACCCATAAATTCATAATTATCACACCCAATTTAACTATAACGCTCTGATCATAGTCAGACCAACATTGCTACGACCCGTATTCGCACCGACAC”, the “relative integration efficiency (log2)” value is -7.44 ± 1.2.
